Experimental findings from paper PMC3688935, “Coordinated Binding of Single-Stranded and Double-Stranded DNA by UvsX Recombinase” are described below.

The target of the data set is UvsX recombinase (bacteriophage T4, UniProt P04529 1-391). Briefly: fluorescence quenching; no nucleotide cofactor; 20 mM Tris-HCl pH 7.4, 50 mM NaCl, 3 mM MgCl2, 25 C; DNA in nucleotides or base pairs; quadratic fit with 4 nt (bp) site size. Particulars: protein: recombinant; tags: none stated (pET27b, E. coli BL21(DE3)); label: AlexaFluor 546 on X (position 23); single strand.
Chain of UvsX recombinase (P04529 whole entry): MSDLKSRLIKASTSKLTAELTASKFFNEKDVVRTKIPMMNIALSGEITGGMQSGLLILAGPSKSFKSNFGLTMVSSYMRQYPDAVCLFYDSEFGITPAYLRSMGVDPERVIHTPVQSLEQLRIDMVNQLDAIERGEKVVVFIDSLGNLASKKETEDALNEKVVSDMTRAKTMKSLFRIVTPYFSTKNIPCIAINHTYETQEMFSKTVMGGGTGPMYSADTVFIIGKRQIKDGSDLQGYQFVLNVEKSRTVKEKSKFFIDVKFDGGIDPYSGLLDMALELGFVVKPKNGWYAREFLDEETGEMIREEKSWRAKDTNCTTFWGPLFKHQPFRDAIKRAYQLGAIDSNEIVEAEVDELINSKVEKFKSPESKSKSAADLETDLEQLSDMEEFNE

TTTTTTTTTTTTTTTTTTTTTTTTT (ssDNA, X at position 23 = amino-modifier C2 dT) [dT22XT2 ssDNA]: the binding result was “binds”.
